The test system of one data set is P15381. Kind of data set: FRET or BRET; living tsA-201 cells expressing CaV1.2-EGFP (donor) and CaV1.2-tagRFP (acceptor), confocal; FRETr = RFPg/GFPg; followed during flash photolysis of caged Ca2+ at −80 mV, during a 500-ms depolarization from −80 to +10 mV (10 mM EGTA in the pipette), and at 0-5000 nM Ca2+ with 1 μM …. Background: Bioluminescence resonance energy transfer reports proximity on the nanometre scale.

Data set [1] has as its target CaV1.2 channel pore-forming subunit (α1c) tagged at its C-terminus with a half of split Venus (CaV1.2-VN155(I152L) and CaV1.2-VC155) (rabbit) (UniProt P15381).

Consider “CaV1.2 channel pore-forming subunit (α1c) tagged at its C-terminus with EGFP or tagRFP (CaV1.2-EGFP and CaV1.2-tagRFP)”, for which the “time for FRETr to decay to 50% of the peak (T50%), with m5” value in the data set on P15381 was found to be 0.63 ± 0.23 s for FRETr.

“CaV1.2 channel pore-forming subunit (α1c) tagged at its C-terminus with a half of split Venus (CaV1.2-VN155(I152L) and CaV1.2-VC155) (from UniProt P15381 1-2171) (natural protein)” showed a CaV1.2 sparklet density after against before the depolarization that fuses CaV1.2-VN and CaV1.2-VC in data set [1] of 10 fold.

Values taken from paper PMC4360655.
